Measured values taken from paper PMC9574498 (The Journal of Biological Chemistry, 2022).

How the values were obtained:
[1] = molecular target: the molecule itself; test: SEC-SAXS
[2] = molecular target: human calmodulin (Ca^2+-CaM; apo-CaM in EDTA) (human, UniProt P0DP23 1-149); test: SEC

- binding result [2]: binds
B1: human P2X7R ballast domain (P2X7BD, residues 395–595) (domain or fragment, UniProt Q99572 395-595, looked up)
chain: KPTLKYVSFVDESHIRMVNQQLLGRSLQDVKGQEVPRPAMDFTDLSRLPLALHDTPPIPGQPEEIQLLRKEATPRSRDSPVWCQCGSCLPSQLPESHRCLEELCCRKKPGACITTSELFRKLVLSRHVLQFLLLYQEPLLALDVDSTNSRLRHCAYRCYATWRFGSQDMADFAILPSCCRWRIRKEFPKSEGQYSGFKSPY
- stoichiometry N [1]: 3
